Reference: paper PMC6356648

Biological target: laminin-332 produced and deposited by iNFs and iCAFs (human (endogenous in iNFs and iCAFs)) (UniProt Q16787)

Question: With “integrin α3β1 (from UniProt P26006 33-1051; P05556 21-798) (receptor)” as the substance, how does the contraction of a collagen-I gel by iCAFs, untreated (reference) read?
Answer: 73%

Question: And the contraction of a collagen-I gel by iCAFs, with BM2 (20 µg/mL)?
Answer: 44%

Question: And the contraction of a collagen-I gel by iCAFs, with lebein-1 (10 µg/mL)?
Answer: 34%
